# Source: patent publication US20090191208A1 (INOTEK PHARMACEUTICALS, published 2009)
# T1: Pseudomonas flagellin (Pseudomonas, UniProt P21184 2-394)
# T1 chain: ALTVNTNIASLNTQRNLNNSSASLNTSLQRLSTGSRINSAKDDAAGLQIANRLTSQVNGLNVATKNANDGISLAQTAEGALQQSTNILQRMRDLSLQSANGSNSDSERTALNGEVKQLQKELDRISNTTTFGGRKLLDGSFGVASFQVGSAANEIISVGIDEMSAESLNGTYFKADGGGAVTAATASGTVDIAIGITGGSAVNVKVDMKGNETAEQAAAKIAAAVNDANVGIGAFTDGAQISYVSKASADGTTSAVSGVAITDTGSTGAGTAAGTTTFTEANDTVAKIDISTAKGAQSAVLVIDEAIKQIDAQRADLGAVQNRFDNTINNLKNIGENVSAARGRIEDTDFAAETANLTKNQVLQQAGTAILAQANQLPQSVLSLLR
# T2: Salmonella flagellin (Salmonella, UniProt P06177 2-505, limits assumed)
# T2 sequence: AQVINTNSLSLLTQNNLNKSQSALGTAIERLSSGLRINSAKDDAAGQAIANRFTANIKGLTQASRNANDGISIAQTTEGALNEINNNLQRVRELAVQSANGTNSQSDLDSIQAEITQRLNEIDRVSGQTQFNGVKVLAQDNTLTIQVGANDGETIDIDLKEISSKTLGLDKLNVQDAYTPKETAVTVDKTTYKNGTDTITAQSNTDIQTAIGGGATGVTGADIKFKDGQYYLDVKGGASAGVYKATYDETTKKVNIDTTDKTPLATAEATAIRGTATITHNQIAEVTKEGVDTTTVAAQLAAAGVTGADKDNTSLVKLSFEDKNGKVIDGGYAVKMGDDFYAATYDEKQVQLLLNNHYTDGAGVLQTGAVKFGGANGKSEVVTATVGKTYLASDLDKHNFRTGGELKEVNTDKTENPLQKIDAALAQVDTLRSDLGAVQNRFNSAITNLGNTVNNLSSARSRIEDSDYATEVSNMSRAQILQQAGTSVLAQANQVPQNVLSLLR
# T3: recombinant SM flagellin protein (a/a 1-156) (Salmonella muenchen, UniProt P06177 1-156)
# T3 construct: The antigen is amino acids 1-156 of S. muenchen flagellin, expressed in E. coli from pET 30C behind the His tag; also called recombinant S. muenchen flagellin; fusion protein; not shown: N-terminal His tag and vector-encoded residues of pET 30C
# T3 sequence: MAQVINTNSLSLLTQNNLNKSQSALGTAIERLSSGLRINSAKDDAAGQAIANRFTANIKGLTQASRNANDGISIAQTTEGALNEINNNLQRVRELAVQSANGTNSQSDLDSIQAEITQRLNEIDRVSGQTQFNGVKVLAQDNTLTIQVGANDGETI
# T4: Salmonella muenchen Flagellin (supplied by Inotek) (Salmonella muenchen, UniProt P06177 2-505)
# T4 sequence: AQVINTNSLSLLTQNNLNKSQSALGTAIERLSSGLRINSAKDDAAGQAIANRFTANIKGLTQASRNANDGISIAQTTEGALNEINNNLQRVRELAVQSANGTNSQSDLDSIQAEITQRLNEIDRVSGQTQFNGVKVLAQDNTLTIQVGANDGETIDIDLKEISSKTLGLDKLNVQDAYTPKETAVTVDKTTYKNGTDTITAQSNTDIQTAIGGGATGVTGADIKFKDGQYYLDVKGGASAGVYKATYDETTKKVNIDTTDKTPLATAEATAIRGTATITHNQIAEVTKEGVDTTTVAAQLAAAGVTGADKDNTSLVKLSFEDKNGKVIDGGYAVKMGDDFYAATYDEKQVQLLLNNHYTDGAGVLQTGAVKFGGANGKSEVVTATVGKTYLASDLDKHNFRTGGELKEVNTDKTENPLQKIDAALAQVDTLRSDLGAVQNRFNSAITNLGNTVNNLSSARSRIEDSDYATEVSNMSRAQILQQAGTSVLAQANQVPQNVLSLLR
# Tests used:
# Pseudomonas flagellin = biological target: T1, Pseudomonas flagellin; test: BIACore (SPR); Pseudomonas flagellin
# Salmonella flagellin = biological target: T2, Salmonella flagellin; test: BIACore (SPR); Salmonella flagellin
# [1] = biological target: T3, recombinant SM flagellin protein (a/a …); test: ELISA of hybridoma supernatants for anti-SM flagellin reactivity
# [2] = biological target: T4, Salmonella muenchen Flagellin (supplied …); test: competition ELISA on plate-coated S. muenchen flagellin; competitor biotinylated mAb 741 at 0.6 µg/ml; mouse control antibody
Binder,Kd (Pseudomonas flagellin) [nM],Kd (Salmonella flagellin) [nM],binding result [1],IC50 [2] [µg/mL]
"human mAb 763 (antibody, V domains shown) VH: EVQLLESGGALVQPGGSLRLSCAASGFTFSSYAMSWARQAPGKGLEWLSGISGSADNTYYAESVKGRFTTSRDNSMNMLYLQMNSLRDEDTAFYYCAKGDQDRGPLEFWGQGTLVTVSS VL: SYELTQPPSVSVSPGQTARITCSGDALPKQYAYWYQQKPGQAPVLLIYQDTKRPSGIPERFSGSSSGTTVALTISGVQAEDEADYYCQSADSNDSYYVFGTGTKVTVL",~1000,~0.1,binds,–
"murine mAb 741 (antibody, V domains shown, also called mouse control antibody) VH: QVQLQQSGAELVGPGASVTLSCKASGHTFTDYEMHWVKQTPVHGLEWIGGIDPETGGTAYNQKLKGEATLTADKSSNTAYMELRSLTSEDSAVYYCTIYLDYWGRGTTLTVSS VL: QIVLTQSPAIMSASPGEKVTMTCSANSSINYMHWYQQKPGTSPKRWIYDTTILASGVPARFSGSGSGTSYSLTISSMEAEDAATYYCHQRSSYPFTFGSGTKLEIK",–,–,–,1.9
